# From US20120021923
# Columns and labels:
# [1] = system: Ac-KGISSQY-AFC
# [2] = system: SKLQ-aluc
substance,measurement,setting,value
prostate-specific antigen (PSA),Km (PSA-A buffer),[1],the Km value is estimated to be 1.73 mM
same,Km (PSA-B buffer),[1],the Km value is estimated to be 0.47 mM
same,Vmax (PSA-A buffer),[1],the Vmax is estimated to be 3.7 RLU/sec
same,Vmax (PSA-B buffer),[1],the Vmax is estimated to be 2.33 RLU/sec
same,turnover rate by PSA,[1],the substrate of KGISSQY has a much higher turnover rate by PSA as compared to SKLQ
same,turnover rate by PSA,[2],SKLQ on the other had appears to have a very slow turnover compared to KGISSQY and to be highly specific to PSA
